The values that follow are results of earlier work, collected in publication PMC2928749.

For orientation: Kd means the constant that tells how readily two partners part at equilibrium.

The series addresses hHR23B Ubl (Homo sapiens) (UniProt P54727).

Chain of hHR23B Ubl (Homo sapiens) (P54727 1-79): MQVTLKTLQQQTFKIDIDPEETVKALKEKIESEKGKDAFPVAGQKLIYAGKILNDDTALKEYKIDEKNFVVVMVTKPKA
Chain of Ataxin-3 Josephin (P54252 1-183): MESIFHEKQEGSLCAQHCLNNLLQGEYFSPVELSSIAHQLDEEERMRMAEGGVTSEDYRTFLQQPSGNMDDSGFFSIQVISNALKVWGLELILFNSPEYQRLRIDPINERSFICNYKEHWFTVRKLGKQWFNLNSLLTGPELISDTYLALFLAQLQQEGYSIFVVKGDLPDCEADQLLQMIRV

As to Ataxin-3 Josephin (from UniProt P54252), the Kd was 12 µM.
